Laboratory results from IntAct's records for PubMed 10743655.

B1: Zinc finger protein CONSTANS (Arabidopsis thaliana (Mouse-ear cress)), Q39057 (parent)
chain: MLKQESNDIGSGENNRARPCDTCRSNACTVYCHADSAYLCMSCDAQVHSANRVASRHKRVRVCESCERAPAAFLCEADDASLCTACDSEVHSANPLARRHQRVPILPISGNSFSSMTTTHHQSEKTMTDPEKRLVVDQEEGEEGDKDAKEVASWLFPNSDKNNNNQNNGLLFSDEYLNLVDYNSSMDYKFTGEYSQHQQNCSVPQTSYGGDRVVPLKLEESRGHQCHNQQNFQFNIKYGSSGTHYNDNGSINHNAYISSMETGVVPESTACVTTASHPRTPKGTVEQQPDPASQMITVTQLSPMDREARVLRYREKRKTRKFEKTIRYASRKAYAEIRPRVNGRFAKREIEAEEQGFNTMLMYNTGYGIVPSF
partner: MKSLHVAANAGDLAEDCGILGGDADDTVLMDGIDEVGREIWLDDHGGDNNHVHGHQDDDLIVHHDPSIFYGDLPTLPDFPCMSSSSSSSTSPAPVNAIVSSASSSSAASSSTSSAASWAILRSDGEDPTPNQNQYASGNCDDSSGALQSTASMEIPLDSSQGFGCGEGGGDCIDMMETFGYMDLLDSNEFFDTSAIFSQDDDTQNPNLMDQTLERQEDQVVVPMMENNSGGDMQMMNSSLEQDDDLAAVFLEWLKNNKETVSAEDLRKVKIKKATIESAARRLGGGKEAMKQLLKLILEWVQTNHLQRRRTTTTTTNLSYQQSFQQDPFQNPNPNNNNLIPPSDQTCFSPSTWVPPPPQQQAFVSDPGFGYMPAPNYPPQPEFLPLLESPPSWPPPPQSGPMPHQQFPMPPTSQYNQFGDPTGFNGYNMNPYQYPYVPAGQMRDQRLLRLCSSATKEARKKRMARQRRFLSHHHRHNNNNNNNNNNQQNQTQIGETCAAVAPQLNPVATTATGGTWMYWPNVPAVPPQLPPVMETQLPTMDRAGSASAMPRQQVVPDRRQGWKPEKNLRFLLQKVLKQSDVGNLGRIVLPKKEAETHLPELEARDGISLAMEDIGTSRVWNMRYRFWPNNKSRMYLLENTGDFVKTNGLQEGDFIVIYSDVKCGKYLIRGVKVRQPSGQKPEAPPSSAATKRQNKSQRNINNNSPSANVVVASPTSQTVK

Variants of: B1
Conditions: with abi3_arath ABI3, Q01593

effect of a mutation on the interaction	Variant
decreasing interaction	P339L
decreasing interaction strength	R340Q
